B1: TPR t1 (parent)
chain: GACCAAUCUGCCCUCAGAGCUCGAGAACAUCUUCGGAUGCAGAGGAGGCAGGCUUCGGUGGCGCGAUAGCGCCAACGUCCUCAACCUCCAAUGCAUCCCACCACAUGAUGAUGCCUGAAGAGCCUUGGUUUUUUG

Variants of: B1
Assay: polymerase ribozyme fitness, log enrichment relative to wild type (log ratio); higher = more active; in vitro selection for triplet polymerase activity
Method in brief: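 Each subunit of a heterodimeric triplet polymerase ribozyme was represented by a PCR-built, transcribed mutant library that underwent triplicate single-round in vitro selection with frozen incubation at −7 °C. Extended constructs were recovered by gel excision, streptavidin-bead capture and RT-PCR, and Illumina sequencing of input and output libraries kept genotypes with ≥10 input reads and ≥1 read per output. Fitness is the logarithm of genotype enrichment relative to wild-type enrichment, from inverse-variance-weighted replicate averages, with a logarithm base of 2.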

| Variant | polymerase ribozyme fitness (log ratio) |
| --- | --- |
| GACCAAUCUGCCCUCAGAGCUCGAGAACAUCUUCGGAUGCAGAGGAGGCAGGCUUCGGUGGCGCGAUAGGGCCAACGUCCUCAACCUCCAAUGCAUCCCACCGCAUGAUGAUGCCUGAAGAGCCUUGGUUUUUUG | -4.93 |
| GAUCAAUCUGCCCUCAGAGCUCGAGAACAUCUUCGGAUGCAGAGGAGGCAGGCUUCGGUGGCGCGAUAGCGCCAACGUCCUCAACCUCCAAUGCAUCCCACCACAUGAUGAAGCCUGAAUAGCCGUGGUUUUUUG | -2.25 |
| GACCAAUCUGCCCACAGAGCUCGAGAACAUCUGCGGUUGCAUAGGAGGCAGGCUUCGGUGCCGCGAUAGCGCCAACGUCCUCAACCUCCAAUGCAUCCCACCACAUGAAGAUGCCUGAAGAGCCUUGGUUUUUUG | -6.69 |
| GACCAAUCUACCCUCAGAGCUCGAGAACAUCUUCGGAUGCAGAGGAGGCAGGCUUCGGUGGCGCGAUAUCGCCAACGCCCUCAACCUCCAAUGCGUCCCACCACAUGAUGAUGCUUGAAGAGCCUUGGUUUUUUG | 0.452 |
| GACCAAUCUGCCCCUAGAGCUCGAGAACAUCUUCGGAUACAGAGGAGGCAGGCUUCGGUGGCGCGAUAGCGGCAACGUCCUCAACCUCCAAUGCAUCCCACCACAUGAUGAUGCCUAAAGAGCCUUGGUUUUUUG | -1.31 |
| GACCAAUCUGCCCUCAGAGCUCGAGAACAUCUUCGGAUGCAGAGGAGGCAGGCUUCGGUGGCGCGAUAUCGCCAACGUCCUCAACCUCCAAUGCAUCCCACCACAUGAUGAUGCCUGAAGAGCCUUGGAUUUUUG | -0.546 |
| GACCAAUCUGCCCUCAGAGUUCGAGAACAUCUUGGGAUGCAGAGGAGGCAGGCUUCGGUGGCGCGAUAGCGCCAACGUCCUCAACCUCCAAUGCAUCCCACCACAUGAUGAUGCCUGAAGAGCCUUGGUUUUUUG | -6.47 |
| GACCAAUCUGCCCUCAGAGCUCGAGAACAUCUUCGGGGGCAGAGGAGGCAGGCUUCGGUGUCGCGAUAGCGCCAACGUCCUCAACCUCCAAUGCAUCCCACCAUAUGAUGAUGCCUGAAGAGCGUUGGUUUUUUG | -4.81 |
| GACCAAUCUGCCCUCAGAGCUCGAGAACAACUUCGGAUGCAGAGGAGGCAGGCUUCGGUGGCGCGAUAGCGCCAACGUCCUCAACCUCCAAUGCGUCCCACCACAUGAUGAUGCCUGAAGUGCCUUGGUUUUUUG | -3.78 |
| GACCAAUCUGCCCUCAGAGCUCUAGAACAUCUUCGGAUGCAGACGAGGCAGGGUUCGGUGGCGCGAUAGCGCCAACGUCCUCAACCUCCAAUGAAUCCCACCACAGGAUGAUACCUGAAGAGCCUUGGUUUUUUG | -7.53 |
| GACCAAUCUGCCCUCAGAGCUCGAGAACAUCUUCGGAUGCAGAGGAGGCAGGCUUCGGUGGCGCGAUAGCGGCAACGUCCUCAACCUCCAAUGCAUCCCACCACAUGAUGAUGCCUGAAGAGCCUUGGUUUUUUA | -0.341 |
| GACCAAUCUGCCCUCAGAGCUCGAGAACUUCUUCGGAUGCAGAUAAGGCAGGCUUCGGUGGCGCGAUAGCGCCAACGUCCUCAACCUCCAAUGCAUCCCACCACAUGAUGAUGCCUGAAGAGCCUUGGUUUUUUG | -4.25 |
| GACCAAUCUGCCCUCAGUGCUCGAGAACAUCUUCGGAUGCAGAGGAGGCAGGCUUCGGUGGCGCGAUAGCGCCAACGUCCUCAACCUCCAGUGCAUCCCACCACAUGAUGAUGCCUGAAGAGCCUUGGUUUUUUG | -1.85 |
| GACCAAUCUGCCCUCAGAGCCCGAGGACAUCUUCGGAUGCAGAGGAGGCAGGCUUCGGUGGCGCGAUAGCGCCAACGUCCUCAACCUCCAAUGCAUCCCACCACAUGAUGAUGCCUGAAGAGCCUUGGUUUUUUG | -2.38 |
| GACCAAUCCGCCCUCAGAGCUCGAGAACAUCUUCGGAUGCAGAGGAGGCAGGCUUCGGUGGCGCGAUAGGGCCAACGUCCUCAACCUCCAAUGCAUCCCACCACAUGAUGAUGCCUGAAGAGCCUUGGUUUUUUG | -1.43 |
| GACCAAUCUGCCCUCAGAGCUCGAGAACAUCUUCGGAUGCAGAGAAGUCAGGCUUCGGUGGCGCGAUAGCGCCAACGUCCUCAACCUCCAAUGCAUCCCACCACAUGAUGAGGCCUGAAGAGCCUUGGUUUUUUG | -2.7 |
| GACCAAUCUGCCCUCAGAGCUCGAGAACAUCUUCGGAUGCAGAGUAGGCAGGCUUCGGUGGCGCGAUAGCGCCAACGUCCUCAACCUCCAAUGCAUCCCACCACAUGAUGAUGCCUAAAGAGCCUUGGUUUUUUG | -1.62 |
| GACCAAUCUGCCCUCAGAGCUCGAGAACAUCUUCGGAUACAUAGGAGGAAGACUUCGGUGGCGCGAUAGCGCCAACGUCCUCAACCUCCAAUGCAUCCCACCACAUGAUGAUGCCUGAAGAGCCUUGGUUUUUUG | -4.68 |
| GACUAAUCUGCCCUCAGAGCUCGAGAACAUCUUCGGAUGCAGAGGAGGUAGGCUUCGGUGGCGCGAUAGCGCCAACGUCCUCAACCUCCAAUGCAUUCCACCACAUGAUGAUGCCUGAAGAGCCUUGUUUUUUUG | -2.93 |
| GACCAAUCUGCUCUCAGAGCUCGAGAACAUCUUCGUAUGCAGAGGAGGCAGGCUUCGGUGGCGCGAUAGCGCCAACGUCCUCAACCUCCAAUGUAUCCCACCACAUGAUGGUGCCAGAAGAGCCUUGGUUUUUUG | -2.07 |
| GACCAAACUGCCCUCAGAGCUCGAGAACAUCUUCGAAUGCAGUGGAGGCAGGCAUCGGUGGCGCGAUAGCGCCAACGUCCUCAACCUCCAAUGCAUCCCAUCACAUGAUGAAGCCUGAAGAGCCUUGGUUUUUUG | -6.85 |
